Results on two substances are retold here after patent publication US20230374502A1.

Bounds are passed on as bounds.

This experiment has as its target SpCas9 (Streptococcus pyogenes Cas9) (Streptococcus pyogenes) (UniProt Q99ZW2). Briefly: cell-based or functional assay.

Regarding Acx137 (AcrVA1, wild type; AcrVA1_mbo), the indel frequency (TIDE), OFF - R1, sample EMCV WT IRES - Acx137 turned out to be 7.9%; the indel frequency (TIDE), OFF - R1, sample T2A - Acx -137 is 11%; the indel frequency (TIDE), ON - R1, sample EMCV WT IRES - Acx137 came out at 38.8%; the indel frequency (TIDE), ON - R1, sample T2A - Acx -137 came out at 40.3%.
Turning to “Acx105 (AcrIIA4, wild type; AcrIIA4_lmo)”, the indel frequency (TIDE), OFF - R1, sample E2A-F2A - Acx-105 turned out to be 1%; the indel frequency (TIDE), OFF - R1, sample EMCV IRESV5 was 6.6%; the indel frequency (TIDE), OFF - R1, sample EMCV IRESV10 was 5%; the indel frequency (TIDE), OFF - R1, sample EMCV IRESV15 came out at 15.8%. The indel frequency (TIDE), OFF - R1, sample EMCV IRESV21 is 12.2%; the indel frequency (TIDE), OFF - R1, sample EMCV WT IRES came out at 2.3%; the indel frequency (TIDE), OFF - R1, sample F2A - Acx-105 was found to be 0.8%; the indel frequency (TIDE), OFF - R1, sample T2A - Acx-105 was 1.3%. Further, the indel frequency (TIDE), OFF - R1, sample T2A-E2A-F2A - Acx-105 turned out to be 0.7%; the indel frequency (TIDE), ON - R1, sample E2A-F2A - Acx-105 came out at 2.7%; the indel frequency (TIDE), ON - R1, sample EMCV IRESV5 stood at 12.5%; the indel frequency (TIDE), ON - R1, sample EMCV IRESV10 worked out at 26.5%. The substance also had an indel frequency (TIDE), ON - R1, sample EMCV IRESV15 of 54.3%; an indel frequency (TIDE), ON - R1, sample EMCV IRESV21 of 50%; an indel frequency (TIDE), ON - R1, sample EMCV WT IRES of 1.2%; an indel frequency (TIDE), ON - R1, sample F2A - Acx-105 of 1.2%. The substance also yielded an indel frequency (TIDE), ON - R1, sample T2A - Acx-105 of 3.4%; an indel frequency (TIDE), ON - R1, sample T2A-E2A-F2A - Acx-105 of 4.5%; an indel frequency, OFF - R1, Acr start codon ACG of 13.5%; an indel frequency, OFF - R1, Acr start codon AUA of 9.8%. Besides, the indel frequency, OFF - R1, Acr start codon AUG came to 1.4%; the indel frequency, OFF - R1, Acr start codon CUG turned out to be 7.8%; the indel frequency, OFF - R1, Acr start codon GUG is 9.5%; the indel frequency, OFF - R1, Acr start codon UUG turned out to be 11.7%. Besides, the indel frequency, ON - R1, Acr start codon ACG turned out to be 32.5%; the indel frequency, ON - R1, Acr start codon AUA is 25.4%; the indel frequency, ON - R1, Acr start codon AUG amounted to 5.6%; the indel frequency, ON - R1, Acr start codon CUG came out at 22.3%. The substance also yielded an indel frequency, ON - R1, Acr start codon GUG of 26.3%; an indel frequency, ON - R1, Acr start codon UUG of 27%; an inhibition of OFF target editing, Acr start codon CUG of 50%; an inhibition of ON target editing, Acr start codon CUG of 36%. This substance also yielded a reduction of SpCas9 editing, Acr start codon AUG greater than 80%.
